Reference: patent US20220226473A1, “Nucleic acid nanocarrier drug and preparation method thereof, pharmaceutical composition and application thereof” (BAI YAO ZHI DA (BEIJING) NANOBIO TECHNOLOGY CO., LTD., priority 2018, published 2022)
{Biotin} = biotin (Bio) of the a-strand; {Bio} = biotin of the strand

Key:
[1] = Electric potential (zeta potential) measurement of self-assembly products; format: physicochemical; settings: result over 3 detections, at 25 DEG C.
Procedure: Measurement method: preparing a potential sample (the self-assembly product is dissolved in ultrapure water) and putting into a sample pool, opening a sample pool cover of an instrument, and placing the instrument;
opening software, clicking a menu MeasUre€ManUal, so a manual measurement parameter setting dialog box appears;
setting a software detection parameter;
and then clicking Ok to complete the settings, after a measurement dialog box appears, clicking start to start.
and then clicking Ok to complete the settings, after a measurement dialog box appears, clicking Start to start.
Measurement method: preparing a potential sample (the self-assembly product is dissolved in ultrapure water) and putting into a sample pool, opening a sample pool cover of an instrument, and placing the instrument:
Measurement result potential detection results of the 7 groups of the extension fragment deformation+core short-sequence RNA nanoparticles at 25 DEG C. are as follows:
setting a software detection parameter; and then
clicking Ok to complete the settings, after a measurement dialog box appears, clicking Start to start.
Measurement result potential detection results of the 7 groups of the extension fragment deformation+core short-sequence DNA nanoparticles at 25 DEG C. are as follows: […]

[2] = TM value detection by solubility curve method (SYBR Green I); format: physicochemical; settings: DNA nanoparticles
Procedure: A solubility curve method is used to detect TM values of the 7 groups of the extension fragment deformation+core short-sequence RNA nanoparticles, and the samples are consistent with the potential samples.
(1) After the sample is diluted with ultrapure water, 5 μg of the diluted sample is mixed with 2 μL of SYBR Green I dye (diluted by 1:200), a final volume is 20 μL, and the dilution concentration is as follows:
(2) It is incubated for 30 min in the dark at a room temperature; and
(3) On-machine detection is performed, a program is set to start at 20 DEG C., the temperature rises per second from 0.1 DEG C. to 95 DEG C., and reading is performed every 5 s.
Due to the particularity of the RNA samples, a temperature corresponding to ½ RFUmax in a range of 20 to 90 DEG C. is used as a sample Tm value in this test.
A solubility curve method is used to detect TM values of the 7 groups of the extension fragment deformation+core short-sequence DNA nanoparticles, and the samples are consistent with the potential samples.
(1) After the sample is diluted with ultrapure water, 5 μg of the diluted sample is mixed with 2 μL of SYBR Green I dye (diluted by 1:200). a final volume is 20 μL, and the dilution concentration is as follows: […]

[3] = test system: HepG2 cells; test: Cell binding of DNA nanoparticles and carrier drugs by FACS; format: cell-based; settings: incubated at 37 DEG C. for 2 h, flow cytometry
Procedure: 1. A cell state is adjusted to a logarithmic growth phase, the medium is changed into a medium without biotin and folic acid, and it is incubated overnight in an incubator at 37 DEG C.
2. After incubation, cell suspension is trypsinized and collected, and centrifuged at 1000 rpm for 5 min, after the concentration is adjusted, a 2×10^6-5×10^6 cell/EP tube is taken and washed twice with 1 mL/tube of 1% BSA-PBS, and cells at the bottom of the tube is observed to prevent them from being absorbed.
3. A substance to be tested is dissolved, and the substance to be tested is diluted to a use concentration.
4. Cell supernatant is absorbed, 100 μL of a corresponding sample is added to each tube in order, light is avoided, and it is incubated at 37 DEG C. for 2 h.
5. It is washed twice with 1% BSA-PBS; and centrifuged at 1000 rpm for 5 min.
6. Finally, it is precipitated with 300 μL of PBS cell resuspension, and flow Cytometric on-machine detection (the blank carrier used in the present embodiment is labeled by Quasar670, and the doxorubicin in the carrier drug has its own fluorescence, so the detection may be performed through FL4-APC and FL2-PE respectively) is performed.

[4] = Drug loading rate of nucleic acid nanoparticles (chemical loading, absorbance standard curve); format: physicochemical; parameters: unit not given here; settings: for doxorubicin loading rate: chemical loading method of Embodiment 5
Source text: According to the chemical loading method (unless otherwise specified, the method is the same as that of Embodiment 5) of Embodiment 5, the RNA nanoparticles formed by the self-assembly of the previous R-15, R-16, R-17, R-18, R-19, R-20 and R-21 in Embodiment 9, and the DNA nanoparticles formed by the self-assembly of the D-8, D-9, D-10, D-11, D-12, D-13 and D-14 in Embodiment 10 are respectively used as doxorubicin loading carriers, doxorubicin loading rates measured are respectively as follows:
According to the chemical loading method (unless otherwise specified, the method is the same as that of Embodiment 5) of Embodiment 5, the DNA nanoparticles formed by the self-assembly of the previous D-10 and D-14 in Embodiment 10 are used as a daunorubicin loading carrier.
According to a chemical loading method of Embodiment 5 (unless otherwise specified, the method is the same as that of Embodiment 5, the same molar number of the epirubicin is used as a loading amount), nucleic acid nanoparticles (a molecular weight is 29550, it is similar to the RNA nanoparticles in Embodiment 1, and a difference is that a fluorescent label on a c-strand is Cy5) are used as a carrier, and respectively loaded with: epirubicin, methotrexate, pirarubicin, daunorubicin, […], 10-hydroxycamptothecin, aspirin and gemcitabine.
Herein, when a standard curve is drawn, the absorbance of the above drugs on the microplate reader is measured respectively. The absorbance of the epirubicin, methotrexate, pirarubicin, daunorubicin, […], 10-hydroxycamptothecin, aspirin and gemcitabine is respectively detected at the following wavelengths: 492 nm, 303 nm, 492 nm, 492 nm, 265 nm, 384 nm, 225 nm and 268 nm. The standard curves obtained correspondingly are respectively shown in FIG. 48a, FIG. 49, FIG. 50sa, FIG. 51, FIG. 52, FIG. 53, FIG. 54a and FIG. 55. […]

[5] = Particle size measurement (DLS hydrodynamic size); format: physicochemical; settings: DLS hydrodynamic size
Source text: 1. Preparing a potential sample (conventional-sequence DNA self-assembly product D-7) and putting into a sample pool, opening a sample pool cover of an instrument, and placing the instrument;
2. opening software, and clicking a menu, so a manual measurement parameter setting dialog box appears;
3. setting a software detection parameter; and then
4. clicking Ok to complete the settings, when a measurement dialog box appears, clicking Start to start, a DLS measurement value result of a hydrodynamic size of the self-assembly product D-7 is shown below in Table 40: […]

[6] = test system: HepG2 cells; test: CCK8 toxicity of DNA nanoparticles and carrier drugs; format: cell-based; settings: HepG2, CCK8, 72 hours
Procedure: A CCK8 method is used to detect the toxicity of DNA nanoparticles and carrier drugs to HepG2.
2. A sample to be tested is diluted according to the following table and added: the original culture medium is removed and 100 μL of a culture medium of the sample to be tested with the different concentration is added, and there are 3 replicate wells in each group.
In the present embodiment, the loaded drug and the blank carrier are firstly prepared into 100 μM of stock solution using the PBS, and then diluted with the complete culture medium (biotin-free DMEM). The original drug doxorubicin is firstly prepared into 100 NM of stock solution by using the DMSO, and then diluted with the complete culture medium (biotin-free DMEM). The DMSO is directly diluted with the complete medium (biotin-free DMEM).
3. After the sample to be tested is added, the 96-well plate is placed in an incubator under 37 DEG C. and 5% CO2 and incubated for 72 hours.
4. A kit is taken out and melted at a room temperature, 10 μL of CCK-8 solution is added to each wall, or the CCK8 solution is nixed with the culture medium at a ratio of 1:9, and then added to the well in an amount of 100 μL/well.
5. It is continuously incubated in the cell incubator for 4 hours, and a length of time depends on experimental conditions such as a cell type and a el density.
6. A microplate reader is used to measure an absorbance at 450 nm.
7. Calculation: cell viability (%)=(OD experimental group−OD blank group)[…]/(OD control group−OD blank group), IC50 is calculated by GraphPad Prism 5.0.

Row | Molecule | Potential ZP, Experiment result [1] [mV] | TM value (° C.) [2] | Positive rate ([3]; HepG2, 1 μM) [%] | Positive rate ([3]; HepG2, 2 μM) [%] | doxorubicin loading rate [4] | Mean particle size (nm) [5] [nm] | IC50 [6] [µM] | daunorubicin loading rate ([4]; absorbance at 492 nm)
1 | D-8: extension fragment deformation+core short-sequence DNA nanoparticle, SEQ ID NO: 141-143, a-strand 3′ biotin (nucleic acid, chain 1: DNA, 3' {Biotin}, backbone and methylation of C not given here; chain 2: DNA, backbone and methylation of C not given here; chain 3: DNA, backbone and methylation of C not given here; three-strand DNA nanoparticle carrier) chain 1: GCGGCGAGCGGCGAGGAGCGTTGGGGCCGGAGGCCGG chain 2: CCGGCCTCCGGCCCCTTCGGGGCCAGCCGCC chain 3: GGCGGCAGGCCCCCATAGCCCTCGCCGCTCGCCGC | −30.23 | 48.5 °C | 96.9 | 98.4 | 28.0 | 7.460 | > 1 | –
2 | D-10: extension fragment deformation+core short-sequence DNA nanoparticle, SEQ ID NO: 147-149, 3′ biotin (nucleic acid, chain 1: DNA, 3' {Bio}, backbone not given here; chain 2: DNA, backbone not given here; chain 3: DNA, backbone not given here; three-strand DNA nanoparticle carrier) chain 1: GCGGCGAGCGGCGAGGAGCGTTGGGGCCGGAGGCCGG chain 2: CCGGCCTCCGGCCCCTTCGCCGCCAGCCGCC chain 3: GGCGGCAGGCGGCCATAGCCCTCGCCGCTCGCCGC | −25.77 | 54.5~55.0 °C | 97.9 | 98.3 | 18.9 | 7.220 | > 1 | 24.0
3 | D-9: extension fragment deformation+core short-sequence DNA nanoparticle, SEQ ID NO: 144-146, 3′ biotin (nucleic acid, chain 1: DNA, 3' {Bio}, backbone and methylation of C not given here; chain 2: DNA, backbone and methylation of C not given here; chain 3: DNA, backbone and methylation of C not given here; three-strand DNA nanoparticle carrier) chain 1: GCGGCGAGCGGCGAGCAGCGTTCGGGCCGGAGGCCGG chain 2: CCGGCCTCCGGCCCGTTCGCCGCCAGCCGCC chain 3: GGCGGCAGGCGGCCATAGCGCTCGCCGCTCGCCGC | −35.07 | 52.5 °C | 96.7 | 98.1 | 27.9 | 7.920 | > 1 | –
4 | D-13: extension fragment deformation+core short-sequence DNA nanoparticle, SEQ ID NO: 156-158, 3′ biotin (nucleic acid, chain 1: DNA, 3' {Bio}, backbone not given here; chain 2: DNA, backbone not given here; chain 3: DNA, backbone not given here; three-strand DNA nanoparticle carrier) chain 1: GCGGCGAGCGGCGACGAGCGTTGCGGCCGGAGGCCGG chain 2: CCGGCCTCCGGCCGCTTCGCCGCCAGCCGCC chain 3: GGCGGCAGGCGGCCATAGCCGTCGCCGCTCGCCGC | −27.00 | 51.0 °C | 97.6 | 98.2 | 31.8 | 7.012 | > 1 | –
5 | D-11: extension fragment deformation+core short-sequence DNA nanoparticle, SEQ ID NO: 150-152, 3′ biotin (nucleic acid, chain 1: DNA, 3' {Bio}, backbone not given here; chain 2: DNA, backbone not given here; chain 3: DNA, backbone not given here; three-strand DNA nanoparticle carrier) chain 1: GCGGCGAGCGGCGAGCAGCGTTCGGGCCGGAGGCCGG chain 2: CCGGCCTCCGGCCCGTTCGGCGCCAGCCGCC chain 3: GGCGGCAGGCGCCCATAGCGCTCGCCGCTCGCCGC | −27.43 | 48.7 °C | 97.7 | 97.8 | 26.8 | 7.472 | > 1 | –
6 | D-12: extension fragment deformation+core short-sequence DNA nanoparticle, SEQ ID NO: 153-155, 3′ biotin (nucleic acid, chain 1: DNA, 3' {Biotin}, backbone not given here; chain 2: DNA, backbone not given here; chain 3: DNA, backbone not given here; three-strand DNA nanoparticle carrier) chain 1: GCGGCGAGCGGCGAGCAGCGTTCGGGCCGGAGGCCGG chain 2: CCGGCCTCCGGCCCGTTCGGCCCCAGCCGCC chain 3: GGCGGCAGGGGCCCATAGCGCTCGCCGCTCGCCGC | −32.50 | 51.5 °C | 96.9 | 97.1 | 27.6 | 6.968 | > 1 | –
